Experimental data published in patent US20250346682A1 (TENEOBIO, published 2025).

T1: human CD20 (B-lymphocyte antigen CD20) (human, UniProt P11836 1-297)
T1 construct: whole, on cells; also called MS4A1
T1 sequence (looked up): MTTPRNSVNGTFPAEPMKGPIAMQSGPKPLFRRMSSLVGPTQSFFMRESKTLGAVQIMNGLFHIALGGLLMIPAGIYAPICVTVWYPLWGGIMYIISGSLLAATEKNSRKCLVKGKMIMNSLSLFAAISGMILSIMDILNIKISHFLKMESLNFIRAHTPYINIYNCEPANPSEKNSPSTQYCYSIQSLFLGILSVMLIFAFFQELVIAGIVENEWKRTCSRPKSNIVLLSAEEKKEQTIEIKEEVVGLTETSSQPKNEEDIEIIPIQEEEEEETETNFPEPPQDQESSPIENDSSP


Molecular target: T1, human CD20 (B-lymphocyte antigen CD20)
Test: ELISA on CD20 protein and cell-binding assays

| Binder | binding result |
| --- | --- |
| anti-CD20 heavy chain-only antibody (UniAb) Clone ID 367912 (antibody, V domains shown, Heavy chain-only antibody (UniAb) from UniRat, called human IgG, with no light chain; also called VH912) VH: EVQLVESGGGVVRPGGSLRLSCAASGFTFDDYGMSWVRQAPGKGLEWVSSINWNGGSKGYADSVKGRFTISRDNAKNSLYLQMNSLRVEDTALYQCARERGYRIGHDSFDIWGQGTLVTVSS | binds |
| anti-CD20 heavy chain-only antibody (UniAb) Clone ID 367936 (antibody, V domains shown, Heavy chain-only antibody (UniAb) from UniRat, called human IgG, with no light chain; also called VH936) VH: QVQLQESGPGLVKPSETLSLTCTVSGGSVSSGNYYWNWIRQPPGKGLEWIGYIYSSGSTKYNPSLKSRVTILVDTSKNQFSLKLSSVTAADTAVYYCARSRLNGDGLFDDRGQGTLVTVSS | binds |
